Test results reported in publication PMC3173129.

Target: Orai3 N-terminal peptide aa 52–65 (human) (UniProt Q9BRQ5)
Assay: SPR

response (resonance units) (resonance units): 207
Substance: Calmodulin from bovine testes (from UniProt P62157 1-149) (natural protein)
